This note sets out measurements from patent US20240383986A1 (OXFORD UNIVERSITY INNOVATION, published 2024).

Assay [1] concerns the target human CD1a expressed on cells (with human β2M) (human) (UniProt P06126).
The target is the same in assay [2]. The assay is described as follows: flow cytometry of ear skin cells of a CD1a transgenic mouse given antibody 116 100 µg i.p. on days 0, 2 and 4 (row 'CD1a : OX116'), HI149 staining on day 5; the cloud lies on the lower edge of the gate.
Assay [3] has the same target. In words: flow cytometry of ear skin cells of a CD1a transgenic mouse given isotype control (row 'CD1a : iso'), HI149 staining; the WT mouse panel prints 0.
Assay [4] has the same target. The assay is described as follows: flow cytometry of ear skin cells of a CD1a transgenic mouse given antibody 116 100 µg i.p. on days 0, 2 and 4 (panel 'CD1a : OX116'), SK9 staining on day 5.
The target is the same in assay [5]. In words: flow cytometry of ear skin cells of a CD1a transgenic mouse given isotype control (panel 'CD1a : iso'), SK9 staining; the WT mouse panel prints 1.30.
The target of assay [6] is human CD1a expressed on cells (with human β2M) (human, UniProt P06126 17-327; P61769 21-119). The assay is described as follows: cell-based or functional assay.
Assay [7] has as its target T1, human CD1c expressed on HEK-293 cells (with human β2M) (human, UniProt P29017 18-333; P61769 21-119).
T1 construct: whole, on cells; also called HEK-CD1c
The assay is described as follows: flow cytometry, transfected HEK-293 cells.

Assay [8] has as its target T2, human CD1d expressed on HEK-293 cells (with human β2M) (human, UniProt P15813 20-335; P61769 21-119).
T2 construct: whole, on cells; also called HEK-CD1d
The assay is described as follows: flow cytometry, transfected HEK-293 cells.

Assay [9] concerns the target T3, human CD1b expressed on HEK-293 cells (with human β2M) (human, UniProt P29016 18-333; P61769 21-119).
T3 construct: whole, on cells; also called HEK-CD1b
In words: flow cytometry, transfected HEK-293 cells.

OKT6 (antibody) displayed an IC50 of inhibition of the polyclonal T cell IFNγ ELISpot response to CD1a-K562 (n=6 donors) in assay [1] of 1.97 µg/mL.

In the case of HI149 (antibody), the IC50 of inhibition of the polyclonal T cell IFNγ ELISpot response to CD1a-K562 (n=6 donors) in assay [1] came out at 1.14 µg/mL. Further, the results for the CD1a+ gate (percent of plotted cells) in [2] and in assay [3] were 46.6% and 82.2%, respectively.

For SK9 (antibody), the IC50 of inhibition of the polyclonal T cell IFNγ ELISpot response to CD1a-K562 (n=6 donors) in assay [1] came out at 6960 µg/mL. Besides, the CD1a+ gate (percent of plotted cells) was found to be 87.4% in assay [4] and 84.9% in assay [5].

B1: 111 (VR12113) (antibody, V domains shown)
VH: QSVEESGGRLVTPGTPLTLTCTASGFSLSTYAMSWVRQAPGKGLEWIGIISSSGSTYYASWAKGRFTISKTSTTVDLKITSPTTEDTATYFCARETWYWLDLWGQGTLVTVSS
VL: AVEMTQTPASVSAAVGGTVTINCQASEDIYSNLAWYQQKPGQPPKLLIYGASTLASGVPSRFKGSGSGTEYTLTISGVQCDDAATYYCQCAYDSSSYGTPFGGGTEVVVK
With B1, the “IC50 of inhibition of the polyclonal T cell IFNγ ELISpot response to CD1a-K562 (n=6 donors)” value in [6] was 1.04 µg/mL. For the same molecule, the binding result in assay [7], in assay [8] and in assay [9] was “no binding (tested: up to 100 µg/ml)” each time.

B2: 77A (VR11851) (antibody, V domains shown)
VH: QSVEESGGRLVTPGTPLTLTCTVSGFSLSSYAMSWVRQAPGKGLEWIGIISSSGTTYYASWAKGRFTISKTSTTVDLKITSPTTEDTATYFCARVDYYSSGWGGLWGPGTLVTVSS
VL: AVEMTQTPASMSAAVGGTVTIKCQASEDIYSNLAWYQQKPGQPPKLLIYGASTLASGVPSRFKGSGSGTEYTLTISGVQCDDAATYYCQCTYDTSSYGNTFGGGTEMVVE
Regarding B2, the “IC50 of inhibition of the polyclonal T cell IFNγ ELISpot response to CD1a-K562 (n=6 donors); table row '77'” value in assay [6] turned out to be 0.181 µg/mL. Besides, the binding result in [7], in assay [8] and in [9] was “no binding (tested: up to 100 µg/ml)” each time.

B3: 116 (VR12117) (antibody, V domains shown)
VH: QSVEESGGRLVTPGTPLTLTCTVSGFSLSNYAMSWVRQAPGKGLEWIGIIYTTGFTYYASWVKGRFTISKTSTTVDLKITSPTTEDTATYFCARGLATYVSPPTRLDLWGQGTLVTVSS
VL: AQVLTQTPSPVSAAVGGTVTINCQASQSIYNSKNLAWYQQKPGQPPKLLIYSASTLASGVPSRFKGSGSGTQFTLTISDLECDDAATYYCQGEFSCSSVDCATFGGGTEVVVK
notes: also called OX116
For the molecule B3, the “IC50 of inhibition of the polyclonal T cell IFNγ ELISpot response to CD1a-K562 (n=6 donors)” value in [6] worked out at 0.141 µg/mL. Further, the binding result in assay [7], in assay [8] and in [9] was “no binding (tested: up to 100 µg/ml)” in each case.

B4: 110 (VR12112) (antibody, V domains shown)
VH: QSVEESGGRLVTPGTPLTLTCTVSGFSLSSYAMIWVRQAPGKGLEWIGIINSSDNTHYATWAKGRFTISKTSTTVDLKITSPTTEDTATYFCARDPYDYGYGWYFDLWGPGTLVTVSS
VL: AQVLTQTPSPVSAAVGGTVTINCQASQSVFNNKNLAWYQQKPGQPPKLLIYKASTLASGVSSRFKGSGSGTQFALTISGVQCDDAATYYCQGEFSCSSTDCVTFGGGTEVVVK
Consider B4, for which, in assay [6], the “IC50 of inhibition of the polyclonal T cell IFNγ ELISpot response to CD1a-K562 (n=6 donors)” value is 0.155 µg/mL. Besides, the binding result in assay [7], in [8] and in assay [9] was “no binding (tested: up to 100 µg/ml)” in each case.
